According to paper PMC2777448 (Nucleic Acids Research, 2009):

Assays:
Assay in all cases: pull-down
[1] = biological target: T1, (His)9-tagged full length Srs2 (S. cerevisiae, UniProt P12954 1-1174)
T1 sequence: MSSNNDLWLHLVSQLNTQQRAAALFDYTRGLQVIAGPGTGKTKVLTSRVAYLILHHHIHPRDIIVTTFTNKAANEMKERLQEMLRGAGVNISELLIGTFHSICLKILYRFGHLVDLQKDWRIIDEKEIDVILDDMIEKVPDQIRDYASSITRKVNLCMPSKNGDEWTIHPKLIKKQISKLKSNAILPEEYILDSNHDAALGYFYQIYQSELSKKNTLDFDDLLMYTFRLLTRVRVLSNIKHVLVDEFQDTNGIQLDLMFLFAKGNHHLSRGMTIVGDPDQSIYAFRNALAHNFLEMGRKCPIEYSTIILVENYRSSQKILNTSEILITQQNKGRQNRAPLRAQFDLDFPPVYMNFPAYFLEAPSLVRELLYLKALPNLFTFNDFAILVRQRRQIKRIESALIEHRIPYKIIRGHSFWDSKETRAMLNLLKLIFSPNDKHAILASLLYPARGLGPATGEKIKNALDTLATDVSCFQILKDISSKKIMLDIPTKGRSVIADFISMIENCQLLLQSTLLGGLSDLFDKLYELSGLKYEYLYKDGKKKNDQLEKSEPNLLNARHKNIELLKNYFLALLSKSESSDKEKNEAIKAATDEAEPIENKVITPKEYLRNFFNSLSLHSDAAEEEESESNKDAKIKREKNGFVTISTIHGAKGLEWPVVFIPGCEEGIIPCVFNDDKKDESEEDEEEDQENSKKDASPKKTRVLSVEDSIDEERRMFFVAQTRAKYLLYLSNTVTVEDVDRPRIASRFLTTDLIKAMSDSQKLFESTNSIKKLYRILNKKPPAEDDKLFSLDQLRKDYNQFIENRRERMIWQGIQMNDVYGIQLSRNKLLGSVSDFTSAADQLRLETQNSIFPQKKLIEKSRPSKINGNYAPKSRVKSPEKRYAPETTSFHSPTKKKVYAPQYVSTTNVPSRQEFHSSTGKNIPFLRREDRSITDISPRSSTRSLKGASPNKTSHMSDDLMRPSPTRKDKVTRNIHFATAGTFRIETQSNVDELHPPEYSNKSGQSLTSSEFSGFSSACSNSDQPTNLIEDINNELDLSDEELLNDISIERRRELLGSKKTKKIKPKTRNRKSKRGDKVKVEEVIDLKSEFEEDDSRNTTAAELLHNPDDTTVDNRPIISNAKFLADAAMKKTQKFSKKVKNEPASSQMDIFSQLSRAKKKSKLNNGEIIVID

(His)9-tagged srs2 1–890 = biological target: T2, (His)9-tagged srs2 1–890 (S. cerevisiae, UniProt P12954 1-890)
T2 sequence: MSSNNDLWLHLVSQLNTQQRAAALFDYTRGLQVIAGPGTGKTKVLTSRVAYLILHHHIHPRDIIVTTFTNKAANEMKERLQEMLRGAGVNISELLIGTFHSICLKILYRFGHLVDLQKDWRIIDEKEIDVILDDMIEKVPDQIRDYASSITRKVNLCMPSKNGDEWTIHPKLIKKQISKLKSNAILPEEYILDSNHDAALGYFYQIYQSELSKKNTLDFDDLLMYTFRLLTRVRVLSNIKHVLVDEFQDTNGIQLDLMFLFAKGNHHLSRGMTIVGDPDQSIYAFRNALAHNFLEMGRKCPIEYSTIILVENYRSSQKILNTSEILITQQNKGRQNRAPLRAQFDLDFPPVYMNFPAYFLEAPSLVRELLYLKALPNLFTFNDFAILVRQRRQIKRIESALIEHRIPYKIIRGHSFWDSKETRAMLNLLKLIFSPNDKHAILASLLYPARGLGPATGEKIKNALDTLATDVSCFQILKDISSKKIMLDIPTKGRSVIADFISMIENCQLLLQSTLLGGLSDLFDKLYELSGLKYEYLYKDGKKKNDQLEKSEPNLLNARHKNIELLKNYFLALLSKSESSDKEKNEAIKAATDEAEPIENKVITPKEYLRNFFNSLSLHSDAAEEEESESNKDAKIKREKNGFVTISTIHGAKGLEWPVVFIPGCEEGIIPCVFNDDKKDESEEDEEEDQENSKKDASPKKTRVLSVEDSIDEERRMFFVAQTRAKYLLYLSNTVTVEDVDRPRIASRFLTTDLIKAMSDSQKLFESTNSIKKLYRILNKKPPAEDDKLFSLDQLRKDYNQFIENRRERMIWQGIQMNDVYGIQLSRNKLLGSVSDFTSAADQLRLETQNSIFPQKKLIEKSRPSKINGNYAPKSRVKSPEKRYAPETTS

(His)9-tagged srs2 1–910 = biological target: T3, (His)9-tagged srs2 1–910 (S. cerevisiae, UniProt P12954 1-910)
T3 sequence: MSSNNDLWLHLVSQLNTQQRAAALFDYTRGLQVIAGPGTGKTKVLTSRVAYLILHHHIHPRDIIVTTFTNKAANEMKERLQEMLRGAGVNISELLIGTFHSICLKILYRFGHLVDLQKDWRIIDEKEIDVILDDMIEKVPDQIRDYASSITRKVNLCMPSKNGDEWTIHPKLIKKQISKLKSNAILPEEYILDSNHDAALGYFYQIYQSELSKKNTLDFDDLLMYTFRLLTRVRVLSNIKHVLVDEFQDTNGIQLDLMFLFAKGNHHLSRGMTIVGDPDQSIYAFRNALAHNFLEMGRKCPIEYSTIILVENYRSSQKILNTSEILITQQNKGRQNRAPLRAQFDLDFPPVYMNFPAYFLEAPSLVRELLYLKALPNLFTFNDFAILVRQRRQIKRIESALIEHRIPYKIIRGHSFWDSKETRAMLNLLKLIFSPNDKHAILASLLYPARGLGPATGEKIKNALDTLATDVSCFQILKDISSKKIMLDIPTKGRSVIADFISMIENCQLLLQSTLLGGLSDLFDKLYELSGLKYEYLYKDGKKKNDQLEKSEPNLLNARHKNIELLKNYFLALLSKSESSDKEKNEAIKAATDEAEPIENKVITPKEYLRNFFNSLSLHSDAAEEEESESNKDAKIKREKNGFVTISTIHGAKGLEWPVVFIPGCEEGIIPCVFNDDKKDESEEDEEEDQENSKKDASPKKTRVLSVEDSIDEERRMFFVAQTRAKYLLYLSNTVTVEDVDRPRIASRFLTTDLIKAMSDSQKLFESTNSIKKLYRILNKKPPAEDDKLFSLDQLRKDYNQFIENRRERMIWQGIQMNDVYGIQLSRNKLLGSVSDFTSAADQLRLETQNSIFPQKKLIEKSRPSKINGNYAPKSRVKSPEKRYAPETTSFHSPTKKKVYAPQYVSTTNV

(His)9-tagged srs2 1–998 = biological target: T4, (His)9-tagged srs2 1–998 (S. cerevisiae, UniProt P12954 1-998)
T4 sequence: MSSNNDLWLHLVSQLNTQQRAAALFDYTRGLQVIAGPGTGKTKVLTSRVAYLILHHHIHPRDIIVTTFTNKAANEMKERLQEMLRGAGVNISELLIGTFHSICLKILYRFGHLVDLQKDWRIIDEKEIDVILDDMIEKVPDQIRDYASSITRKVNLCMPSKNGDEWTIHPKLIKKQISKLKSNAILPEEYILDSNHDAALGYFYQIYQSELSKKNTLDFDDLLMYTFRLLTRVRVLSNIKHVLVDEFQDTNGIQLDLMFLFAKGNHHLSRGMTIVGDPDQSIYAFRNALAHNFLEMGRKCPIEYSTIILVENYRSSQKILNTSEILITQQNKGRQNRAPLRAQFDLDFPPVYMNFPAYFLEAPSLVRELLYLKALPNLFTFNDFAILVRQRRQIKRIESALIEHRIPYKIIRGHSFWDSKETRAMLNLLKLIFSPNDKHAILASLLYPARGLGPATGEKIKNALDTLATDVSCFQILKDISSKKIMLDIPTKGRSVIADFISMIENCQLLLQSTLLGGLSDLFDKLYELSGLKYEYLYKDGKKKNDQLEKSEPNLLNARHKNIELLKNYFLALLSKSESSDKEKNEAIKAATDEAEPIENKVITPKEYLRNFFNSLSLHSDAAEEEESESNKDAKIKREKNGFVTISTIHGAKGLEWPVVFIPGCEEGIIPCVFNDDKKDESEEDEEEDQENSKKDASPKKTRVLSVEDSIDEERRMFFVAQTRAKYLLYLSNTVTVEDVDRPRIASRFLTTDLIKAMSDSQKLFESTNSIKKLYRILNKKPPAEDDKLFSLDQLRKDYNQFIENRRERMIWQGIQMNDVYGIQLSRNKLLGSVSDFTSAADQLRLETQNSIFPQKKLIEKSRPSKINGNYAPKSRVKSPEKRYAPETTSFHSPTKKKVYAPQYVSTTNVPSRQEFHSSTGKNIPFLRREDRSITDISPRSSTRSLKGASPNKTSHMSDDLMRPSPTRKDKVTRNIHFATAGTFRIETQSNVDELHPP

Measured: binding result

B1: Rad51 (natural protein)
chain: MSQVQEQHISESQLQYGNGSLMSTVPADLSQSVVDGNGNGSSEDIEATNGSGDGGGLQEQAEAQGEMEDEAYDEAALGSFVPIEKLQVNGITMADVKKLRESGLHTAEAVAYAPRKDLLEIKGISEAKADKLLNEAARLVPMGFVTAADFHMRRSELICLTTGSKNLDTLLGGGVETGSITELFGEFRTGKSQLCHTLAVTCQIPLDIGGGEGKCLYIDTEGTFRPVRLVSIAQRFGLDPDDALNNVAYARAYNADHQLRLLDAAAQMMSESRFSLIVVDSVMALYRTDFSGRGELSARQMHLAKFMRALQRLADQFGVAVVVTNQVVAQVDGGMAFNPDPKKPIGGNIMAHSSTTRLGFKKGKGCQRLCKVVDSPCLPEAECVFAIYEDGVGDPREEDE
binds: all assays above
